Reference: patent US20140087995A1 (published 2014)
Numbered stars: 1 amine (or outer) side, 2 acyl side, 3 side chain; on linkers, the order of the positions; unused ones are H or OH. Bridge positions count the residues as written; N and C are the ends. Side chains are listed from the residue outwards. Ends that are not written are not given here. * marks the point of attachment. C20 diacid = O=C(O)CCCCCCCCCCCCCCCCCCC(=O)*; γGlu = O=C(O)[C@H](CCC(=O)[*:2])N[*:1]; AEEA = NCCOCCOCC(=O)O

T1: human amylin receptor (amylin 3(a) receptor: human calcitonin receptor with RAMP-3) (human, UniProt P30988 25-474; O60896 24-148)
T1 construct: whole, on cells; also called hAmylin-R; hAmylinR
T1 sequence (looked up) 1: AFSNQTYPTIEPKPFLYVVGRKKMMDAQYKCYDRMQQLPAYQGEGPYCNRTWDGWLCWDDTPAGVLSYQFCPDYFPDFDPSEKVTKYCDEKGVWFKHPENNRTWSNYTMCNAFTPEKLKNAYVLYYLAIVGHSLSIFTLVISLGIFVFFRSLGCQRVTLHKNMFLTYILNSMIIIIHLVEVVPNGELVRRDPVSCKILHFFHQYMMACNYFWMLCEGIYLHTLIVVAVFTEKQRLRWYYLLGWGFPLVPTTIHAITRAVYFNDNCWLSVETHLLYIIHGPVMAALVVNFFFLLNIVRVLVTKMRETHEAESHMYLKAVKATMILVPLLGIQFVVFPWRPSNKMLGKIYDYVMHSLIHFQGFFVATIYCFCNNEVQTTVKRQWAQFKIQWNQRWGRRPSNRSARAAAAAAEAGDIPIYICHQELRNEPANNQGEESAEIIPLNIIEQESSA
T1 sequence (looked up) 2: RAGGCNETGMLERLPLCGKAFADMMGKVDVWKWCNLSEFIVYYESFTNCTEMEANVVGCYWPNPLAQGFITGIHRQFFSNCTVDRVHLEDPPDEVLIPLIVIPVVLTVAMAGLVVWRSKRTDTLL

B1: N^ε-[(4S)-4-carboxy-4-(19-carboxynonadecanoylamino)butanoyl]Lys[Arg1,Arg17,Pro21,Pro27,His35]-h-amylin (peptide)
peptide: K([γGlu-C20 diacid])RCNTATCATQRLANFLRHSSPNFGAIPSSTNVGSHTY-NH2
modifications: disulfide 3-8; N-terminus assumed
SMILES: CC[C@H](C)[C@H](NC(=O)[C@H](C)NC(=O)CNC(=O)[C@H](Cc1ccccc1)NC(=O)[C@H](CC(N)=O)NC(=O)[C@@H]1CCCN1C(=O)[C@H](CO)NC(=O)[C@H](CO)NC(=O)[C@H](Cc1c[nH]cn1)NC(=O)[C@H](CCCNC(=N)N)NC(=O)[C@H](CC(C)C)NC(=O)[C@H](Cc1ccccc1)NC(=O)[C@H](CC(N)=O)NC(=O)[C@H](C)NC(=O)[C@H](CC(C)C)NC(=O)[C@H](CCCNC(=N)N)NC(=O)[C@H](CCC(N)=O)NC(=O)[C@@H](NC(=O)[C@H](C)NC(=O)[C@@H]1CSSC[C@H](NC(=O)[C@H](CCCNC(=N)N)NC(=O)[C@@H](N)CCCCNC(=O)CC[C@H](NC(=O)CCCCCCCCCCCCCCCCCCC(=O)O)C(=O)O)C(=O)N[C@@H](CC(N)=O)C(=O)N[C@@H]([C@@H](C)O)C(=O)N[C@@H](C)C(=O)N[C@@H]([C@@H](C)O)C(=O)N1)[C@@H](C)O)C(=O)N1CCC[C@H]1C(=O)N[C@@H](CO)C(=O)N[C@@H](CO)C(=O)N[C@H](C(=O)N[C@@H](CC(N)=O)C(=O)N[C@H](C(=O)NCC(=O)N[C@@H](CO)C(=O)N[C@@H](Cc1c[nH]cn1)C(=O)N[C@H](C(=O)N[C@@H](Cc1ccc(O)cc1)C(N)=O)[C@@H](C)O)C(C)C)[C@@H](C)O
notes: also called 44; compound 44
B2: N^-1-[(4S)-4-carboxy-4-(19-carboxynonadecanoylamino)butanoyl]-Gly[Arg1,Arg17,Pro21,Pro27]-h-amylin (peptide)
peptide: {C20 diacid-γGlu}-GRCNTATCATQRLANFLRHSSPNFGAIPSSTNVGSNTY-NH2
modifications: disulfide 3-8
SMILES: CC[C@H](C)[C@H](NC(=O)[C@H](C)NC(=O)CNC(=O)[C@H](Cc1ccccc1)NC(=O)[C@H](CC(N)=O)NC(=O)[C@@H]1CCCN1C(=O)[C@H](CO)NC(=O)[C@H](CO)NC(=O)[C@H](Cc1c[nH]cn1)NC(=O)[C@H](CCCNC(=N)N)NC(=O)[C@H](CC(C)C)NC(=O)[C@H](Cc1ccccc1)NC(=O)[C@H](CC(N)=O)NC(=O)[C@H](C)NC(=O)[C@H](CC(C)C)NC(=O)[C@H](CCCNC(=N)N)NC(=O)[C@H](CCC(N)=O)NC(=O)[C@@H](NC(=O)[C@H](C)NC(=O)[C@@H]1CSSC[C@H](NC(=O)[C@H](CCCNC(=N)N)NC(=O)CNC(=O)CC[C@H](NC(=O)CCCCCCCCCCCCCCCCCCC(=O)O)C(=O)O)C(=O)N[C@@H](CC(N)=O)C(=O)N[C@@H]([C@@H](C)O)C(=O)N[C@@H](C)C(=O)N[C@@H]([C@@H](C)O)C(=O)N1)[C@@H](C)O)C(=O)N1CCC[C@H]1C(=O)N[C@@H](CO)C(=O)N[C@@H](CO)C(=O)N[C@H](C(=O)N[C@@H](CC(N)=O)C(=O)N[C@H](C(=O)NCC(=O)N[C@@H](CO)C(=O)N[C@@H](CC(N)=O)C(=O)N[C@H](C(=O)N[C@@H](Cc1ccc(O)cc1)C(N)=O)[C@@H](C)O)C(C)C)[C@@H](C)O
notes: also called 46; compound 46
B3: N^-1-[(4S)-4-carboxy-4-(19-carboxynonadecanoylamino)butanoyl]-Gly[Arg1,Arg17,Pro21,Pro27,His35]-h-amylin (peptide)
peptide: {C20 diacid-γGlu}-GRCNTATCATQRLANFLRHSSPNFGAIPSSTNVGSHTY-NH2
modifications: disulfide 3-8
SMILES: CC[C@H](C)[C@H](NC(=O)[C@H](C)NC(=O)CNC(=O)[C@H](Cc1ccccc1)NC(=O)[C@H](CC(N)=O)NC(=O)[C@@H]1CCCN1C(=O)[C@H](CO)NC(=O)[C@H](CO)NC(=O)[C@H](Cc1c[nH]cn1)NC(=O)[C@H](CCCNC(=N)N)NC(=O)[C@H](CC(C)C)NC(=O)[C@H](Cc1ccccc1)NC(=O)[C@H](CC(N)=O)NC(=O)[C@H](C)NC(=O)[C@H](CC(C)C)NC(=O)[C@H](CCCNC(=N)N)NC(=O)[C@H](CCC(N)=O)NC(=O)[C@@H](NC(=O)[C@H](C)NC(=O)[C@@H]1CSSC[C@H](NC(=O)[C@H](CCCNC(=N)N)NC(=O)CNC(=O)CC[C@H](NC(=O)CCCCCCCCCCCCCCCCCCC(=O)O)C(=O)O)C(=O)N[C@@H](CC(N)=O)C(=O)N[C@@H]([C@@H](C)O)C(=O)N[C@@H](C)C(=O)N[C@@H]([C@@H](C)O)C(=O)N1)[C@@H](C)O)C(=O)N1CCC[C@H]1C(=O)N[C@@H](CO)C(=O)N[C@@H](CO)C(=O)N[C@H](C(=O)N[C@@H](CC(N)=O)C(=O)N[C@H](C(=O)NCC(=O)N[C@@H](CO)C(=O)N[C@@H](Cc1c[nH]cn1)C(=O)N[C@H](C(=O)N[C@@H](Cc1ccc(O)cc1)C(N)=O)[C@@H](C)O)C(C)C)[C@@H](C)O
notes: also called 47; compound 47
B4: N^ε1-[2-[2-[2-[[(4S)-4-carboxy-4-(19-carboxynonadecanoylamino)butanoyl]amino]ethoxy]ethoxy]acetyl]-[Arg17,Pro21,Pro27]-h-amylin (peptide)
peptide: K([AEEA-γGlu-C20 diacid])CNTATCATQRLANFLRHSSPNFGAIPSSTNVGSNTY-NH2
modifications: disulfide 2-7; N-terminus assumed
SMILES: CC[C@H](C)[C@H](NC(=O)[C@H](C)NC(=O)CNC(=O)[C@H](Cc1ccccc1)NC(=O)[C@H](CC(N)=O)NC(=O)[C@@H]1CCCN1C(=O)[C@H](CO)NC(=O)[C@H](CO)NC(=O)[C@H](Cc1c[nH]cn1)NC(=O)[C@H](CCCNC(=N)N)NC(=O)[C@H](CC(C)C)NC(=O)[C@H](Cc1ccccc1)NC(=O)[C@H](CC(N)=O)NC(=O)[C@H](C)NC(=O)[C@H](CC(C)C)NC(=O)[C@H](CCCNC(=N)N)NC(=O)[C@H](CCC(N)=O)NC(=O)[C@@H](NC(=O)[C@H](C)NC(=O)[C@@H]1CSSC[C@H](NC(=O)[C@@H](N)CCCCNC(=O)COCCOCCNC(=O)CC[C@H](NC(=O)CCCCCCCCCCCCCCCCCCC(=O)O)C(=O)O)C(=O)N[C@@H](CC(N)=O)C(=O)N[C@@H]([C@@H](C)O)C(=O)N[C@@H](C)C(=O)N[C@@H]([C@@H](C)O)C(=O)N1)[C@@H](C)O)C(=O)N1CCC[C@H]1C(=O)N[C@@H](CO)C(=O)N[C@@H](CO)C(=O)N[C@H](C(=O)N[C@@H](CC(N)=O)C(=O)N[C@H](C(=O)NCC(=O)N[C@@H](CO)C(=O)N[C@@H](CC(N)=O)C(=O)N[C@H](C(=O)N[C@@H](Cc1ccc(O)cc1)C(N)=O)[C@@H](C)O)C(C)C)[C@@H](C)O
notes: also called 41; compound 41
B5: N^ε-[2-[2-[2-[[(4S)-4-carboxy-4-(19-carboxynonadecanoylamino)butanoyl]amino]ethoxy]ethoxy]acetyl]Lys[Arg1,Arg17,Pro21,Pro27,His35]-h-amylin (peptide)
peptide: K([AEEA-γGlu-C20 diacid])RCNTATCATQRLANFLRHSSPNFGAIPSSTNVGSHTY-NH2
modifications: disulfide 3-8; N-terminus assumed
SMILES: CC[C@H](C)[C@H](NC(=O)[C@H](C)NC(=O)CNC(=O)[C@H](Cc1ccccc1)NC(=O)[C@H](CC(N)=O)NC(=O)[C@@H]1CCCN1C(=O)[C@H](CO)NC(=O)[C@H](CO)NC(=O)[C@H](Cc1c[nH]cn1)NC(=O)[C@H](CCCNC(=N)N)NC(=O)[C@H](CC(C)C)NC(=O)[C@H](Cc1ccccc1)NC(=O)[C@H](CC(N)=O)NC(=O)[C@H](C)NC(=O)[C@H](CC(C)C)NC(=O)[C@H](CCCNC(=N)N)NC(=O)[C@H](CCC(N)=O)NC(=O)[C@@H](NC(=O)[C@H](C)NC(=O)[C@@H]1CSSC[C@H](NC(=O)[C@H](CCCNC(=N)N)NC(=O)[C@@H](N)CCCCNC(=O)COCCOCCNC(=O)CC[C@H](NC(=O)CCCCCCCCCCCCCCCCCCC(=O)O)C(=O)O)C(=O)N[C@@H](CC(N)=O)C(=O)N[C@@H]([C@@H](C)O)C(=O)N[C@@H](C)C(=O)N[C@@H]([C@@H](C)O)C(=O)N1)[C@@H](C)O)C(=O)N1CCC[C@H]1C(=O)N[C@@H](CO)C(=O)N[C@@H](CO)C(=O)N[C@H](C(=O)N[C@@H](CC(N)=O)C(=O)N[C@H](C(=O)NCC(=O)N[C@@H](CO)C(=O)N[C@@H](Cc1c[nH]cn1)C(=O)N[C@H](C(=O)N[C@@H](Cc1ccc(O)cc1)C(N)=O)[C@@H](C)O)C(C)C)[C@@H](C)O
notes: also called 45; compound 45
B6: N^ε1-[2-[2-[2-(19-carboxynonadecanoylamino)ethoxy]ethoxy]acetyl]-[Arg17,Pro21,Pro27]-h-amylin (peptide)
peptide: K([AEEA-C20 diacid])CNTATCATQRLANFLRHSSPNFGAIPSSTNVGSNTY-NH2
modifications: disulfide 2-7; N-terminus assumed
SMILES: CC[C@H](C)[C@H](NC(=O)[C@H](C)NC(=O)CNC(=O)[C@H](Cc1ccccc1)NC(=O)[C@H](CC(N)=O)NC(=O)[C@@H]1CCCN1C(=O)[C@H](CO)NC(=O)[C@H](CO)NC(=O)[C@H](Cc1c[nH]cn1)NC(=O)[C@H](CCCNC(=N)N)NC(=O)[C@H](CC(C)C)NC(=O)[C@H](Cc1ccccc1)NC(=O)[C@H](CC(N)=O)NC(=O)[C@H](C)NC(=O)[C@H](CC(C)C)NC(=O)[C@H](CCCNC(=N)N)NC(=O)[C@H](CCC(N)=O)NC(=O)[C@@H](NC(=O)[C@H](C)NC(=O)[C@@H]1CSSC[C@H](NC(=O)[C@@H](N)CCCCNC(=O)COCCOCCNC(=O)CCCCCCCCCCCCCCCCCCC(=O)O)C(=O)N[C@@H](CC(N)=O)C(=O)N[C@@H]([C@@H](C)O)C(=O)N[C@@H](C)C(=O)N[C@@H]([C@@H](C)O)C(=O)N1)[C@@H](C)O)C(=O)N1CCC[C@H]1C(=O)N[C@@H](CO)C(=O)N[C@@H](CO)C(=O)N[C@H](C(=O)N[C@@H](CC(N)=O)C(=O)N[C@H](C(=O)NCC(=O)N[C@@H](CO)C(=O)N[C@@H](CC(N)=O)C(=O)N[C@H](C(=O)N[C@@H](Cc1ccc(O)cc1)C(N)=O)[C@@H](C)O)C(C)C)[C@@H](C)O
notes: also called 43; compound 43

target: T1, human amylin receptor (amylin 3(a) …); test: SPA displacement of 125I-rat amylin, hAmylin 3(a) receptor membranes
Procedure, shortened: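 SPA beads + BHK amylin 3(a)/CRE-luc membranes, 35 ng/μL final; buffer 50 mM Hepes pH 7.4, 1 mM CaCl2, 5 mM MgCl₂, 0.1% OA, 0.02% Tween20. 120 min, 25° C, shaken; scintillation count. IC₅₀ by one-site binding competition fit, taken as receptor affinity.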

Binder	IC50 [pM]
B1	275
B2	195
B3	344
B4	427
B5	552
B6	76
